In the experiment the target is GSK3β used in the surface plasmon resonance binding assays (UniProt P49841 1-420). In words: SPR. In general terms: Surface plasmon resonance follows binding to a sensor surface in real time, without labels.
GSK3β used in the surface plasmon resonance binding assays, sequence (P49841 whole entry): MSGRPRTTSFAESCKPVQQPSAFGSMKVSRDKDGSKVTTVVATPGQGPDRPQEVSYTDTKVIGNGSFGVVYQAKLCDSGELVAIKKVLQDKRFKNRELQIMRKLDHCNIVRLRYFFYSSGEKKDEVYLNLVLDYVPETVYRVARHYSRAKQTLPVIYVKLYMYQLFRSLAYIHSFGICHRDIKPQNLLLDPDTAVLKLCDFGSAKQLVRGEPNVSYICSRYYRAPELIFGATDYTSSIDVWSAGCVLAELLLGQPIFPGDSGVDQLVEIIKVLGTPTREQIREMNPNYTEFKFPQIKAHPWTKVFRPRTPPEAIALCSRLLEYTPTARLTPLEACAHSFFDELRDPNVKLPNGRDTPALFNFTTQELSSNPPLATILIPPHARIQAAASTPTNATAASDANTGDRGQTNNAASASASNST

With SFSFIQLSLGAAGER (peptide, UniProt Q811T9 211-225, looked up) [DISCtide2 (15-mer peptide, mDISC1 amino acids 211 to 225)], the “stoichiometry N” value is 2 peptide:protein.

Consider PADIASLPGFQDTFTSSFSFIQLSLGAAGERGEAEGCLPSREAE (peptide, UniProt Q811T9 195-238, looked up) [DISCtide-1 (mDISC1 amino acids 195 to 238)], for which the “stoichiometry N” value is 2 peptide:protein.

For the origin of these results see article PMC2704382 (Cell, 2009).
